Experimental findings from paper PMC11540549 (Biochemistry, 2019) are described below.

No end group written: not given here.

In experiment [1] the target is TCF19 PHD R330Y (UniProt Q9Y242). The experiment in a line: NMR titration.
Experiment [2] concerns the target TCF19 PHD C324A (UniProt Q9Y242). Kind of experiment: NMR titration.
The target in experiment [3] is TCF19 PHD W307Y (UniProt Q9Y242). Kind of experiment: NMR titration.
The target in experiment [4] is T1, TCF19 (DDCAC) PHD (UniProt Q9Y242 296-342).
T1 sequence: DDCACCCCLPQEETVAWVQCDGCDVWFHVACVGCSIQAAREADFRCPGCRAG
Kind of experiment: other fluorescence titration.

In general, Kd refers to the free concentration of one partner at which half of the binding sites on the other are occupied at equilibrium, for simple one-to-one binding. Turning to “H3K4me3 peptide (residues 1-12) (from UniProt P68431 2-13)”, the Kd came to 400 µM in experiment [1], 440 µM in experiment [2] and 2000 µM in experiment [3].
ARTK(Me3)QTARKSTG (peptide, UniProt P68431 2-13, looked up) [H3K4me3 peptide (residues 1-12)] returned a Kd in experiment [4] of 4.7 µM.
